Data from patent publication US20260001928A1 (CORTERIA PHARMACEUTICALS, priority 2022, published 2026).
*1 amine or outer side, *2 acyl side, *3 side chain or, on linkers, in order; H or OH if unused. Side-chain parts run from the residue outwards. [ ]: non-standard residue; d: D form. The star is where a group is joined. C18 diacid = O=C(O)CCCCCCCCCCCCCCCCC(=O)*; C16 diacid = O=C(O)CCCCCCCCCCCCCCC(=O)*; γGlu = O=C(O)[C@H](CCC(=O)[*:2])N[*:1]; αMeL = CC(C)C[C@](C)(N)C(=O)O; AEEA = NCCOCCOCC(=O)O; Aib = CC(C)(N)C(=O)O; Butyryl = CCCC(=O)*

T1: CRF1R receptor (UniProt P34998 24-415, limits assumed)
T1 sequence (looked up): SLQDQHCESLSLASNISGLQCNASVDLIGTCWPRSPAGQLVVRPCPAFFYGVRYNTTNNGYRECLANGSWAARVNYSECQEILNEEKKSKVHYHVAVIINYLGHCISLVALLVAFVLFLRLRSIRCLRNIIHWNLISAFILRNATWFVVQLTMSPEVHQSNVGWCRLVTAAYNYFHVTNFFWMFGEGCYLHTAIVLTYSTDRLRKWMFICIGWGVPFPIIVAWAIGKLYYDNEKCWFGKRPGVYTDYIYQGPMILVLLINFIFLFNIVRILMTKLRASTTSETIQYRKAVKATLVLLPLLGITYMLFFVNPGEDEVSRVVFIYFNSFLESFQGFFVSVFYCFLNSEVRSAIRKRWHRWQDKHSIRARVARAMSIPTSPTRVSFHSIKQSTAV


Legend:
CRF1R receptor = target: T1, CRF1R receptor; assay: cell-based or functional assay
[1] = target: human corticotropin-releasing factor 2a (CRF2a receptor) (human), Q13324; assay: cell-based or functional assay
Chain of human corticotropin-releasing factor 2a (CRF2a receptor) (human), Q13324 (Q13324 20-411): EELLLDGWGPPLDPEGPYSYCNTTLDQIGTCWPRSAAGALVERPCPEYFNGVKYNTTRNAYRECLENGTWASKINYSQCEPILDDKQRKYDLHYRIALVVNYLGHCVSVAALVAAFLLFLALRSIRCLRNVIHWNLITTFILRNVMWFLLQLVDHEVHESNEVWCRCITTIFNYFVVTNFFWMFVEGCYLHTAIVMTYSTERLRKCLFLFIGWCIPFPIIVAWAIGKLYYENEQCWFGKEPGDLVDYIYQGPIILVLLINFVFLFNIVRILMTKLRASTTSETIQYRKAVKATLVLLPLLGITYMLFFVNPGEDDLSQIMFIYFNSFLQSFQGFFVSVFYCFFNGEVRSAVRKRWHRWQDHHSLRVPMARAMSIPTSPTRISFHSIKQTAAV

| Binder | Emax (% I) (CRF1R receptor) [%] | EC50 [nM] (cAMP) [1] |
| --- | --- | --- |
| Ac-VLSLD[dV]PIKLK([AEEA-AEEA-γGlu-C18 diacid])KILLEQEKQKKQREQAETN[Aib]QILAQV-NH2 (SMILES CC[C@H](C)[C@H](NC(=O)[C@H](CCC(N)=O)NC(=O)C(C)(C)NC(=O)[C@H](CC(N)=O)NC(=O)[C@@H](NC(=O)[C@H](CCC(=O)O)NC(=O)[C@H](C)NC(=O)[C@H](CCC(N)=O)NC(=O)[C@H](CCC(=O)O)NC(=O)[C@H](CCCNC(=N)N)NC(=O)[C@H](CCC(N)=O)NC(=O)[C@H](CCCCN)NC(=O)[C@H](CCCCN)NC(=O)[C@H](CCC(N)=O)NC(=O)[C@H](CCCCN)NC(=O)[C@H](CCC(=O)O)NC(=O)[C@H](CCC(N)=O)NC(=O)[C@H](CCC(=O)O)NC(=O)[C@H](CC(C)C)NC(=O)[C@H](CC(C)C)NC(=O)[C@@H](NC(=O)[C@H](CCCCN)NC(=O)[C@H](CCCCNC(=O)COCCOCCNC(=O)COCCOCCNC(=O)CC[C@H](NC(=O)CCCCCCCCCCCCCCCCC(=O)O)C(=O)O)NC(=O)[C@H](CC(C)C)NC(=O)[C@H](CCCCN)NC(=O)[C@@H](NC(=O)[C@@H]1CCCN1C(=O)[C@H](NC(=O)[C@H](CC(=O)O)NC(=O)[C@H](CC(C)C)NC(=O)[C@H](CO)NC(=O)[C@H](CC(C)C)NC(=O)[C@@H](NC(C)=O)C(C)C)C(C)C)[C@@H](C)CC)[C@@H](C)CC)[C@@H](C)O)C(=O)N[C@@H](CC(C)C)C(=O)N[C@@H](C)C(=O)N[C@@H](CCC(N)=O)C(=O)N[C@H](C(N)=O)C(C)C) [SEQ ID NO 99] | 0 | 6.07 |
| Butyryl-VLSLD[dV]PIKLK([γGlu-C16 diacid])KILLEQEKQKKQREQAETN[Aib]QILAQV-NH2 (SMILES CCCC(=O)N[C@H](C(=O)N[C@@H](CC(C)C)C(=O)N[C@@H](CO)C(=O)N[C@@H](CC(C)C)C(=O)N[C@@H](CC(=O)O)C(=O)N[C@@H](C(=O)N1CCC[C@H]1C(=O)N[C@H](C(=O)N[C@@H](CCCCN)C(=O)N[C@@H](CC(C)C)C(=O)N[C@@H](CCCCNC(=O)CC[C@H](NC(=O)CCCCCCCCCCCCCCC(=O)O)C(=O)O)C(=O)N[C@@H](CCCCN)C(=O)N[C@H](C(=O)N[C@@H](CC(C)C)C(=O)N[C@@H](CC(C)C)C(=O)N[C@@H](CCC(=O)O)C(=O)N[C@@H](CCC(N)=O)C(=O)N[C@@H](CCC(=O)O)C(=O)N[C@@H](CCCCN)C(=O)N[C@@H](CCC(N)=O)C(=O)N[C@@H](CCCCN)C(=O)N[C@@H](CCCCN)C(=O)N[C@@H](CCC(N)=O)C(=O)N[C@@H](CCCNC(=N)N)C(=O)N[C@@H](CCC(=O)O)C(=O)N[C@@H](CCC(N)=O)C(=O)N[C@@H](C)C(=O)N[C@@H](CCC(=O)O)C(=O)N[C@H](C(=O)N[C@@H](CC(N)=O)C(=O)NC(C)(C)C(=O)N[C@@H](CCC(N)=O)C(=O)N[C@H](C(=O)N[C@@H](CC(C)C)C(=O)N[C@@H](C)C(=O)N[C@@H](CCC(N)=O)C(=O)N[C@H](C(N)=O)C(C)C)[C@@H](C)CC)[C@@H](C)O)[C@@H](C)CC)[C@@H](C)CC)C(C)C)C(C)C) [SEQ ID NO 79] | 10 | 0.38 |

Other lines, results leading:

| Emax (% I) (CRF1R receptor) [%] | EC50 [nM] (cAMP) [1] | Binder |
| --- | --- | --- |
| 3 | 0.28 | Ac-IVLSLD[dV]PIK[αMeL]K([AEEA-AEEA-γGlu-C18 diacid])KILLEQEKQKKQREQAETNAQILAQV-NH2 (SMILES CC[C@H](C)[C@H](NC(C)=O)C(=O)N[C@H](C(=O)N[C@@H](CC(C)C)C(=O)N[C@@H](CO)C(=O)N[C@@H](CC(C)C)C(=O)N[C@@H](CC(=O)O)C(=O)N[C@@H](C(=O)N1CCC[C@H]1C(=O)N[C@H](C(=O)N[C@@H](CCCCN)C(=O)N[C@@](C)(CC(C)C)C(=O)N[C@@H](CCCCNC(=O)COCCOCCNC(=O)COCCOCCNC(=O)CC[C@H](NC(=O)CCCCCCCCCCCCCCCCC(=O)O)C(=O)O)C(=O)N[C@@H](CCCCN)C(=O)N[C@H](C(=O)N[C@@H](CC(C)C)C(=O)N[C@@H](CC(C)C)C(=O)N[C@@H](CCC(=O)O)C(=O)N[C@@H](CCC(N)=O)C(=O)N[C@@H](CCC(=O)O)C(=O)N[C@@H](CCCCN)C(=O)N[C@@H](CCC(N)=O)C(=O)N[C@@H](CCCCN)C(=O)N[C@@H](CCCCN)C(=O)N[C@@H](CCC(N)=O)C(=O)N[C@@H](CCCNC(=N)N)C(=O)N[C@@H](CCC(=O)O)C(=O)N[C@@H](CCC(N)=O)C(=O)N[C@@H](C)C(=O)N[C@@H](CCC(=O)O)C(=O)N[C@H](C(=O)N[C@@H](CC(N)=O)C(=O)N[C@@H](C)C(=O)N[C@@H](CCC(N)=O)C(=O)N[C@H](C(=O)N[C@@H](CC(C)C)C(=O)N[C@@H](C)C(=O)N[C@@H](CCC(N)=O)C(=O)N[C@H](C(N)=O)C(C)C)[C@@H](C)CC)[C@@H](C)O)[C@@H](C)CC)[C@@H](C)CC)C(C)C)C(C)C) [SEQ ID NO 112] |
| 0 | 1.74 | Ac-VLSLD[dV]PIKLK([AEEA-AEEA-γGlu-C18 diacid])KILLEQEKQKKQREQAETNAQILAQV-NH2 (SMILES CC[C@H](C)[C@H](NC(=O)[C@H](CCC(N)=O)NC(=O)[C@H](C)NC(=O)[C@H](CC(N)=O)NC(=O)[C@@H](NC(=O)[C@H](CCC(=O)O)NC(=O)[C@H](C)NC(=O)[C@H](CCC(N)=O)NC(=O)[C@H](CCC(=O)O)NC(=O)[C@H](CCCNC(=N)N)NC(=O)[C@H](CCC(N)=O)NC(=O)[C@H](CCCCN)NC(=O)[C@H](CCCCN)NC(=O)[C@H](CCC(N)=O)NC(=O)[C@H](CCCCN)NC(=O)[C@H](CCC(=O)O)NC(=O)[C@H](CCC(N)=O)NC(=O)[C@H](CCC(=O)O)NC(=O)[C@H](CC(C)C)NC(=O)[C@H](CC(C)C)NC(=O)[C@@H](NC(=O)[C@H](CCCCN)NC(=O)[C@H](CCCCNC(=O)COCCOCCNC(=O)COCCOCCNC(=O)CC[C@H](NC(=O)CCCCCCCCCCCCCCCCC(=O)O)C(=O)O)NC(=O)[C@H](CC(C)C)NC(=O)[C@H](CCCCN)NC(=O)[C@@H](NC(=O)[C@@H]1CCCN1C(=O)[C@H](NC(=O)[C@H](CC(=O)O)NC(=O)[C@H](CC(C)C)NC(=O)[C@H](CO)NC(=O)[C@H](CC(C)C)NC(=O)[C@@H](NC(C)=O)C(C)C)C(C)C)[C@@H](C)CC)[C@@H](C)CC)[C@@H](C)O)C(=O)N[C@@H](CC(C)C)C(=O)N[C@@H](C)C(=O)N[C@@H](CCC(N)=O)C(=O)N[C@H](C(N)=O)C(C)C) [SEQ ID NO 101] |
